{
  "source": "paper PMC11929898",
  "about": "(Scientific Reports, 2025)",
  "binders": {"B1": {"name": "REC8 (natural protein)", "chain": "MFYYPNVLQRHTGCFATIWLAATRGSRLVKREYLNVNVVKTCEEILNYVLVRVQPPVAGLPRPRFSLYLSAQLQIGVIRVYFQQCQYLVEDIQHILEHLHRAQLRIRIDMEEADLPSLLLPNCLAMMETLEDAPEPFFGKMSVDPRLPSPFDIPQIRHLLEAATPEKTRKETLPEATPDPRKPDRTLATVQSPEVITLQEAEPIRMLQIEGEQDLPEISRGDLELLIAEKDDAILLEERQRGRLLRQRRASLPLDESREEPRALEGAGLVSALSPPAPAQVEGIQEALPGQVFPPEVQKMTGWEPGALLTEVTPPQELRLPAPPSTEKRLPSLQRPLPRRHRRRQLLFWDKETQISREKFEEQLQTGAHCWEYPVAQPPKRMLTSPAELFRTPTLSGWLPPELLGLWTHCAQVPQRMLRQRPQLETEETVEEERAADEEERRKTEALSEIEVLREAQEPSGPLMLSSELSLEAAEDEKSRTSLIPPEWWAWSEEGQPEPPALPMLPELPEVPMEMPPRPELSSEAVLRAVALKLQANKELDFSSLVPPLSPRKLASRVFYLLLVLSTQKILLVEQQKPYGPLLIRPGPKFP"}},
  "biological_target": "SMC3 (mouse (endogenous in mouse ES cells), UniProt Q9CW03 1-1217)",
  "sequence (Q9CW03 whole entry)": "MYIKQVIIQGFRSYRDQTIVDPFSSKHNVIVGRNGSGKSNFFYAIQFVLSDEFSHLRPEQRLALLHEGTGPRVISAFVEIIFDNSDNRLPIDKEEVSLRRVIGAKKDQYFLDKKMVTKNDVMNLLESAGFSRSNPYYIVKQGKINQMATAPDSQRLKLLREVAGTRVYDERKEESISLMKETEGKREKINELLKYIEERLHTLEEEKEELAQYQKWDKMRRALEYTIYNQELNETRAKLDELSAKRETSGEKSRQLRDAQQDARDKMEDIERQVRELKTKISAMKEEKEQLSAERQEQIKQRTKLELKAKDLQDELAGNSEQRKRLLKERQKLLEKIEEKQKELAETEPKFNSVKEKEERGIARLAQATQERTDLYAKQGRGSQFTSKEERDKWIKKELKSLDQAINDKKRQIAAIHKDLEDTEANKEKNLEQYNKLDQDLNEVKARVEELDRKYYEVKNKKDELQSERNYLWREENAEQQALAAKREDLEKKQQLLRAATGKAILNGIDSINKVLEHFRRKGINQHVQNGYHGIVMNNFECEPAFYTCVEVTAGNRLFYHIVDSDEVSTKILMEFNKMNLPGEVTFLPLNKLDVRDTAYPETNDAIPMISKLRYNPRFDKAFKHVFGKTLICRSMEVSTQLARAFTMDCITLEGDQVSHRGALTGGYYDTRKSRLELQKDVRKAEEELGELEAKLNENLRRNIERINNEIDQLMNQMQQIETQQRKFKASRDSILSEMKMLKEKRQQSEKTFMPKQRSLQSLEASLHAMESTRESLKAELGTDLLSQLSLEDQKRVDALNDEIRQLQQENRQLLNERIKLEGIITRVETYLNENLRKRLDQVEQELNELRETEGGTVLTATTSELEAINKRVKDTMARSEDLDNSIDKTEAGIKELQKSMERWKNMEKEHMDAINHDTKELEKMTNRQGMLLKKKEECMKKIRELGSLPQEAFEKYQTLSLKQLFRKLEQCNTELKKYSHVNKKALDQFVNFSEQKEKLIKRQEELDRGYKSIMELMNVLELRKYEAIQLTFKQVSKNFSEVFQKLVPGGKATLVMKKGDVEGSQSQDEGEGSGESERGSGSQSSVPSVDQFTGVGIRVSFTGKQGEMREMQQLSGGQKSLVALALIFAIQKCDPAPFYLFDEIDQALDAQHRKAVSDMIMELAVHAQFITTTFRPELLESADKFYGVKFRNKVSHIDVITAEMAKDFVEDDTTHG",
  "experiment": "co-IP",
  "data": [
    {"binder": "B1", "values": [
      {"measurement": "fold change of co-IP with siRad21 against siCtrl", "value": 1.92, "unit": "fold"}
    ]}
  ]
}
